T1: human SIGLEC4 on CHO-S-hSIGLEC4 cells (human, UniProt P20916 20-516)
T1 sequence: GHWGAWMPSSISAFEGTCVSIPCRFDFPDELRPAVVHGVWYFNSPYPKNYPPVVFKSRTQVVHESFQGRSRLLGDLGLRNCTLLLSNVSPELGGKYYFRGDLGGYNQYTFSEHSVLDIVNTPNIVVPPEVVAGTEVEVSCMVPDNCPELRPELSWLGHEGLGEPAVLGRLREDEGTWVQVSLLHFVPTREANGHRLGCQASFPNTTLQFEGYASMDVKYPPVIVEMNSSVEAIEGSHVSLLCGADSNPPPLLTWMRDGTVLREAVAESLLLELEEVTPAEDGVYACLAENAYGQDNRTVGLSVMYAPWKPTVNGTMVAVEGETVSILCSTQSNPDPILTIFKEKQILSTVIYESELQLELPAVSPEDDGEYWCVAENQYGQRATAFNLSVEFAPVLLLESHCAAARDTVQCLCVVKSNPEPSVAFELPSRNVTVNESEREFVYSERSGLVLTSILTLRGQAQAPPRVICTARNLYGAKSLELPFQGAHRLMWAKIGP

T2: human SIGLEC5 on CHO-S-hSIGLEC5 cells (human, UniProt O15389 17-441)
T2 sequence: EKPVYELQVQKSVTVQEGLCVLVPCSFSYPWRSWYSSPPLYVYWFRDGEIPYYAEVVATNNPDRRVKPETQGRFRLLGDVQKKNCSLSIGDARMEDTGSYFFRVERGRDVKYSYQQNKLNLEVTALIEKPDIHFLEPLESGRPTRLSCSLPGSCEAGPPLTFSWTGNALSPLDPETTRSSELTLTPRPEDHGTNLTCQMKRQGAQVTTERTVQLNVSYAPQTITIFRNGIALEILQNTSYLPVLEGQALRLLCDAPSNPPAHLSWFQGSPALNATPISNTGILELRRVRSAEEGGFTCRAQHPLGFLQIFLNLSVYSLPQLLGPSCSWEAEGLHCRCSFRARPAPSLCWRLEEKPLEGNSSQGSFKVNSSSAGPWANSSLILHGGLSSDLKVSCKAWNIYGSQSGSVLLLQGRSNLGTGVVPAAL

T3: human SIGLEC11 on CHO-S-hSIGLEC11 cells (human, UniProt Q96RL6 104-561)
T3 sequence: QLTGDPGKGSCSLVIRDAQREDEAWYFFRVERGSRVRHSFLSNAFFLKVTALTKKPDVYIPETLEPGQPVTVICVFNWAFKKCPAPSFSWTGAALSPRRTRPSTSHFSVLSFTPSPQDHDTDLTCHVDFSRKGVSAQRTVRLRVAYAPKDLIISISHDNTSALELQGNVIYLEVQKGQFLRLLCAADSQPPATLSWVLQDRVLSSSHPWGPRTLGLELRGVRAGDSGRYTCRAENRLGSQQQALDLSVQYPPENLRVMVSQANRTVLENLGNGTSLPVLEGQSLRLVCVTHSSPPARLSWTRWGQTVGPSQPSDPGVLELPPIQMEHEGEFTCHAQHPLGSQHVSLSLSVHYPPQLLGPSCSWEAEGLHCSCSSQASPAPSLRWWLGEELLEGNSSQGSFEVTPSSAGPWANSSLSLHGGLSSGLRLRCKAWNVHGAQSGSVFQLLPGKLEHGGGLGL

B1: anti-SIGLEC15 antibody 23F4 (antibody, human IgG1, V domains shown)
VH: QVQLQQWGAGLLKPSETLSLTCAVYGGSFSGYFWSWIRQPPGKGLEWIGEINHSGSTNYNPSLKSRVTLSVDTSKNQFSLKLSSVTAADTAVYYCAREGDSSSWGNWFDPWGQGTLVTVSS
VL: EIVLTQSPGTLSLSPGERATLSCRASQSVSSSYLAWYQQKPGQAPRFLIYGASSRATGIPDRFSGSGSGTDFTLTISRLEPEDFAVYYCQQFGNSPLTFGGGTKVEIK
B2: anti-SIGLEC15 antibody 10A7 (antibody, human IgG1, V domains shown)
VH: EVQLVQSGGGLVQPGGSLRLSCAASGFTFSNYEMNWVRQAPGKGLEWISYISNSGSTIYYADSVKGRFTISRDDAKNSLYLQMNSLRAEDTAVYYCAREDYDSSGYYWFDPWGQGTPVTVSS
VL: DIQLTQSPSSVSASVGDRVTITCRASQGISSWLAWYQQKPGKAPKLLIYAASSLQSGVPSRFSGSGSGTDFTLTINSLQPEDFATYYCQQTNSFPLTFGGGTKVEIK
B3: anti-SIGLEC15 antibody 10C9 (antibody, human IgG1, V domains shown)
VH: QVQLVQSGAEVKKPGATVKVSCKASGYTFTNYGFSWVRQAPGQGLEWMGWINTYNDNTNYAQKFQGRVTMTTDTSTSTAYMELRSLRSDDTAVYYCARDGLWFGELPHYFDYWGQGTLVTVSS
VL: DIQLTQSPLSSPVTLGQPASISCRSSQSLVNSDGETFLSWLQQRPGQPPRLLIYKISNRFSGVPDRFSGSGAGTDFTLKISRVEAEDVGVYYCMQATQFPHTFGQGTKLEIK

Chain of human SIGLEC12 on CHO-S-hSIGLEC12 cells (Q96PQ1 19-481): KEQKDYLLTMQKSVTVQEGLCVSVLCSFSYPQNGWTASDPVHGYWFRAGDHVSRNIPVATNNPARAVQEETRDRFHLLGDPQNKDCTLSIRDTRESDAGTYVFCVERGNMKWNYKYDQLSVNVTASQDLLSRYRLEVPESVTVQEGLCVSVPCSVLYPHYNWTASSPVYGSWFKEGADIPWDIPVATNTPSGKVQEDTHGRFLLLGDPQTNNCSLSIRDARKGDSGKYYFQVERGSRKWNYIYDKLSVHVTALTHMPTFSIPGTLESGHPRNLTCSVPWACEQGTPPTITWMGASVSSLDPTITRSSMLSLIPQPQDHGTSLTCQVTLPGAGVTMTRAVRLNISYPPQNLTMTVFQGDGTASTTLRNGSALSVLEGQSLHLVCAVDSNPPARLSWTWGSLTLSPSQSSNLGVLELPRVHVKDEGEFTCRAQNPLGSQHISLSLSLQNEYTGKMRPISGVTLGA
Chain of human SIGLEC1 on CHO-S-hSIGLEC1 cells (Q9BZZ2 20-1641): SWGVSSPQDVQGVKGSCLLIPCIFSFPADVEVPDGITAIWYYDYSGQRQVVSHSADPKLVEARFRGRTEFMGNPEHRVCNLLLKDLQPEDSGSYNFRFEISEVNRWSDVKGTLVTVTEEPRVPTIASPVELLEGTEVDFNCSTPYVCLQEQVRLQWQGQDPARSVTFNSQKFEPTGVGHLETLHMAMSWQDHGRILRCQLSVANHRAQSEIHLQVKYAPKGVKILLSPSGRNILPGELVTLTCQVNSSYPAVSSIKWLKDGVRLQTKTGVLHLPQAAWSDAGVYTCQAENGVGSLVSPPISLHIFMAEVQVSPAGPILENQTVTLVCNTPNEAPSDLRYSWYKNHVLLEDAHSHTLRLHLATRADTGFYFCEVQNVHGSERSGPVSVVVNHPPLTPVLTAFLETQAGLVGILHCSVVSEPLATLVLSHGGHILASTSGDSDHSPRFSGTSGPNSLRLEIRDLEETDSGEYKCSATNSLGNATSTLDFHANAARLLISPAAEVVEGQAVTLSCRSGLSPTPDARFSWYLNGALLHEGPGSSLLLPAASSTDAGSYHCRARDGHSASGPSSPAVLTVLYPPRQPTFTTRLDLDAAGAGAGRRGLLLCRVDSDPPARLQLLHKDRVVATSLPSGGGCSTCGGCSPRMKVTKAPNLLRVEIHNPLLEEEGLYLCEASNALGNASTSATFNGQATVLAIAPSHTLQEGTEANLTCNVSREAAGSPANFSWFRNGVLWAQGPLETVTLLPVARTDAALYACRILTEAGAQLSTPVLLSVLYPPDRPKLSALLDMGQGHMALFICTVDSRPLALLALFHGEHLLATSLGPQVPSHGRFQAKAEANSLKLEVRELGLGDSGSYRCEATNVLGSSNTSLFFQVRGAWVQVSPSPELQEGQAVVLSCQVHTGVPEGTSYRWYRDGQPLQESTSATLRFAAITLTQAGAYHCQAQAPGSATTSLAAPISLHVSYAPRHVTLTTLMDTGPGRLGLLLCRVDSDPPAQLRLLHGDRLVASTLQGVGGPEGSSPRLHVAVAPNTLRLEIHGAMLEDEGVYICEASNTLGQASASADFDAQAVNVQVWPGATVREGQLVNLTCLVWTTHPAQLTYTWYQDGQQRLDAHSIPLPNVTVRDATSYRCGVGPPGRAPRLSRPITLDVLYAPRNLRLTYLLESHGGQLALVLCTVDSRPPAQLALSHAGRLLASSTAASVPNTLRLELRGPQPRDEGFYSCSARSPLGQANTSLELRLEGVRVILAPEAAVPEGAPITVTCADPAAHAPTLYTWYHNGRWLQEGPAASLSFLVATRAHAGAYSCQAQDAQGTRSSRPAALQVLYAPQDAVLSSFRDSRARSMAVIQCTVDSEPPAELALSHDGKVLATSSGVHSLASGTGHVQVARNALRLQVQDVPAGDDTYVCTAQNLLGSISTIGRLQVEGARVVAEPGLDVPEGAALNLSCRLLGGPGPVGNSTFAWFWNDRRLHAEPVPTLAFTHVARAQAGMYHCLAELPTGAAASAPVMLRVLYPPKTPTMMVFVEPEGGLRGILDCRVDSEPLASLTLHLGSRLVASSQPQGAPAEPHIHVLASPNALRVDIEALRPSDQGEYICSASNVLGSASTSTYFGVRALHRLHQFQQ

In one experiment the target is human SIGLEC1 on CHO-S-hSIGLEC1 cells (human, UniProt Q9BZZ2 20-1641). The experiment is described as follows: flow cytometry, CHO-S cells expressing the target. As to Percentage of Positive Cells: test concentration or dose not given here. As for the experimental part:
(§1) CHO-S-hSIGLEC15 cells, CHO-S-mSIGLEC15 cells, CHO-S-fasSIGLEC15 cells or CHO-S-dSIGLEC15 cells were transferred to a 96-well plate at a density of 5×10⁴ cells/well respectively. Serially diluted sample anti-SIGLEC15 antibodies were added to the 96-well plate, and incubated at 4° C. for 30 min. Then, the cells were incubated with the secondary antibody anti-hIgG-Fc-Alex Flour 647 (RL1-H) (Jackson ImmunoResearch Laboratories, Inc., 109-606-170) at 4° C. in the dark for 15 minutes before flow cytometry analysis.
(§2) Another similar experiment was performed to determine whether the anti-SIGLEC15 antibodies can bind with other SIGLEC family proteins. CHO-S-hSIGLEC1 cells (expressing hSIGLEC1, SEQ ID NO: 49)), CHO-S-hSIGLEC2 cells (expressing hSIGLEC2, SEQ ID NO: 50), CHO-S-hSIGLEC4 cells (expressing hSIGLEC4, SEQ ID NO: 51), CHO-S-hSIGLEC5 cells (expressing hSIGLEC5, SEQ ID NO: 52), CHO-S-hSIGLEC6 cells (expressing hSIGLEC6, SEQ ID NO: 53), CHO-S-hSIGLEC7 cells (expressing hSIGLEC7, SEQ ID NO: 54), CHO-S-hSIGLEC8 cells (expressing hSIGLEC8, SEQ ID NO: 55), CHO-S-hSIGLEC9 cells (expressing hSIGLEC9, SEQ ID NO: 56), CHO-S-hSIGLEC10 cells (expressing hSIGLEC10, SEQ ID NO: 57), CHO-S-hSIGLEC11 cells (expressing hSIGLEC11, SEQ ID NO: 58), CHO-S-hSIGLEC12 cells (expressing hSIGLEC12, SEQ ID NO: 59), CHO-S-hSIGLEC14 cells (expressing hSIGLEC14, SEQ ID NO: 60) or CHO-S-hSIGLEC16 cells (expressing hSIGLEC16, SEQ ID NO: 61) were used.
Background: In flow cytometry, cells or beads pass a laser one at a time.
B1: the “Percentage of Positive Cells” value was 1.1% and the binding result is reported as “no binding”.

Consider B2, for which the “Percentage of Positive Cells” value came out at 0% and the binding result is recorded as “no binding”.

In the case of B3, the “Percentage of Positive Cells” value turned out to be 0.1% and the binding result is recorded as “no binding”.

A further experiment deals with T1, human SIGLEC4 on CHO-S-hSIGLEC4 cells. The experiment is described as follows: flow cytometry, CHO-S cells expressing the target. As to Percentage of Positive Cells: test concentration or dose not given here. As for the experimental part:
as §1, §2
Regarding B1, the “Percentage of Positive Cells” value came to 0.8% and the binding result is “no binding”.

Consider B2, for which the “Percentage of Positive Cells” value came out at 1.1% and the binding result is reported as “no binding”.

On to B3, for which the “Percentage of Positive Cells” value stood at 1.2% and the binding result is reported as “no binding”.

Another experiment has as its target T2, human SIGLEC5 on CHO-S-hSIGLEC5 cells. As to the kind of experiment: flow cytometry, CHO-S cells expressing the target. As to Percentage of Positive Cells: test concentration or dose not given here. As for the experimental part:
as §1, §2
Regarding B1, the “Percentage of Positive Cells” value was found to be 7% and the binding result was “no binding”.

With B2, the “Percentage of Positive Cells” value was 0.2% and the binding result is “no binding”.

Turning to B3, the “Percentage of Positive Cells” value amounted to 0.2% and the binding result is “no binding”.

The target in a further experiment is human SIGLEC8 on CHO-S-hSIGLEC8 cells (human, UniProt Q9NYZ4 17-363). As to the kind of experiment: flow cytometry, CHO-S cells expressing the target. As to Percentage of Positive Cells: test concentration or dose not given here. As for the experimental part: as §1, §2
Chain of human SIGLEC8 on CHO-S-hSIGLEC8 cells (Q9NYZ4 17-363): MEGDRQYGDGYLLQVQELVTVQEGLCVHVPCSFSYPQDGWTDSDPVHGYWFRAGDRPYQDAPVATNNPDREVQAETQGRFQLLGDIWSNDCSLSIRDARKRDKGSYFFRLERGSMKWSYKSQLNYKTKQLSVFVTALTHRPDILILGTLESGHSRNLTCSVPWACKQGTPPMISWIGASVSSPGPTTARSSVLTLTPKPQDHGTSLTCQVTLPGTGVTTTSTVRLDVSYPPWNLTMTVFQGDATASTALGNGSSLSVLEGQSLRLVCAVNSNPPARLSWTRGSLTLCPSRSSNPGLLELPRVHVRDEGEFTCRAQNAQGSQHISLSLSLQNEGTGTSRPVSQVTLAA
Regarding B1, the “Percentage of Positive Cells” value is 0.6% and the binding result is listed as “no binding”.

Take B2: the “Percentage of Positive Cells” value came to 0.1% and the binding result is “no binding”.

Take B3: the “Percentage of Positive Cells” value stood at 0.3% and the binding result is reported as “no binding”.

The target in another experiment is T3, human SIGLEC11 on CHO-S-hSIGLEC11 cells. As to the kind of experiment: flow cytometry, CHO-S cells expressing the target. As to Percentage of Positive Cells: test concentration or dose not given here. As for the experimental part: as §1, §2
For the molecule B1, the “Percentage of Positive Cells” value was 0.2% and the binding result is reported as “no binding”.

Take B2: the “Percentage of Positive Cells” value is 0.1% and the binding result is listed as “no binding”.

Turning to B3, the “Percentage of Positive Cells” value turned out to be 0.1% and the binding result is reported as “no binding”.

For the next experiment, the target named is human SIGLEC12 on CHO-S-hSIGLEC12 cells (human, UniProt Q96PQ1 19-481). As to the kind of experiment: flow cytometry, CHO-S cells expressing the target. As to Percentage of Positive Cells: test concentration or dose not given here. As for the experimental part:
as §1, §2
Turning to B1, the “Percentage of Positive Cells” value was 0.4% and the binding result is on record as “no binding”.

In the case of B2, the “Percentage of Positive Cells” value amounted to 0% and the binding result is listed as “no binding”.

As for B3, the “Percentage of Positive Cells” value was determined as 0.1% and the binding result is listed as “no binding”.

For the origin of these results see patent US20250361296A1 (BIOCYTOGEN PHARMACEUTICALS BEIJING, published 2025).
